This note sets out measurements from US12226490B2, “Anti-ROR1 antibody conjugates, compositions comprising anti ROR1 antibody conjugates, and methods of making and using anti-ROR1 antibody conjugates preliminary class” (Sutro Biopharma, Inc., priority 2022, dated 2025).

Positions count from the first letter of the chain named.

To fix the notation:
B1: 1944-A07 HC w/hUCHT1 LC3: HC of lead antibody 1944-A07 co-expressed with LC "derived from anti-CD3 antibodies": hUCHT1-LC3 (antibody, V domains shown)
VH: EVQLVESGGGLVQPGGSLRLSCAASGFNITGYYIHWVRQAPGKGLEWVGYISPNSGSTYYADSVKGRFTISADTSKNTAYLQMNSLRAEDTAVYYCARDSRRYVRPFDYWGQGTLVTVSS
VL: DIQMTQSPSTLSASVGDRVTITCRASQDIRNYLNWYQQKPGKAPKLLIYYTSRLHSGVPSRFSGSGSGTEYTLTISSLQPDDFATYYCQQGNTLPWTFGGGTKVEIK
B2: 1944-A07 HC w/hSP34 LC3: HC of lead antibody 1944-A07 co-expressed with LC "derived from anti-CD3 antibodies": hSP34-LC3 (antibody, V domains shown)
VH: B1 VH
VL: QTVVTQEPSLTVSPGGTVTLTCGSSTGAVTSGYYPNWFQQKPGQAPRGLIGGTKFLAPGTPARFSGSLLGGKAALTLSGVQPEDEAEYYCALWYSNRWVFGGGTQLTVTG
B3: SRP2196-B01 (antibody, V domains shown)
VH: B1 VH with Y50Q, S57Y, A79T, P106S, F107W
VL: QAVVTQESALTTSPGETVTLTCRSSTGAVTTSNYANWVQEKPDHLFTGLIGGTNKRAPGVPARFSGSLIGDKAALTITGAQTEDEAIYFCALWYSNLWVFGGGTKLTVL
B4: SRP2196-A03 (antibody, V domains shown)
VH: B1 VH with G31Q, Y33H, Y59H, Y60E, P106G, F107W
VL: B3 VL
B5: SRP2196-A11 (antibody, V domains shown)
VH: B1 VH with Y50Q, S57T, Y60D, P106G, F107W
VL: B3 VL
B6: SRP2196-A04 (antibody, V domains shown)
VH: B1 VH with T30S, G31P, Y50Q, S52Y, N54I, S57H, Y60Q, D99E, R105G, D108G
VL: B3 VL
B7: SRP2196-B03 (antibody, V domains shown)
VH: B1 VH with V12A, S57A, Y59H
VL: B3 VL
B8: SRP2196-A07 (antibody, V domains shown)
VH: B1 VH with Y50Q, N84S, P106G, F107W
VL: B3 VL
B9: SRP2196-A05 (antibody, V domains shown)
VH: B1 VH with G31N, S57A, Y60Q, P106S, F107W
VL: B3 VL
B10: SRP1944-A07 w SP34 LC3 (antibody, V domains shown)
VH: B1 VH
VL: B2 VL
B11: SRP2196-A06 (antibody, V domains shown)
VH: B1 VH with Y50Q, Y59H, Y60Q, E89G, P106G, F107W
VL: B3 VL
B12: SRP2196-A08 (antibody, V domains shown)
VH: B1 VH with Y60K, K76R, P106S, F107W
VL: B3 VL
B13: SRP2196-A09 (antibody, V domains shown)
VH: B1 VH with Y50Q, S57A, Y59H, V104I, P106S, F107W
VL: B3 VL
B14: SRP2196-B02 (antibody, V domains shown)
VH: B1 VH with G31Q, S57Q, Y60D, P106S, F107W
VL: B3 VL
B15: SRP2196-A10 (antibody, V domains shown)
VH: B1 VH with S57A, Y59H, T74I, Y94H, P106S, F107W
VL: B3 VL
B16: SRP2196-A02 (antibody, V domains shown)
VH: B1 VH with Y50Q, S57A, Y59H, Y60D, P106G, F107W
VL: B3 VL
B17: SRP2196-A01 (antibody, V domains shown)
VH: B1 VH with Y50Q, S57Y, P106G, F107W
VL: B3 VL
B18: SRP2196-B05 (antibody, V domains shown)
VH: B1 VH with Y50Q, S57A, Y60H, P106G, F107W
VL: B3 VL

T1 sequence (Q01973 165-305): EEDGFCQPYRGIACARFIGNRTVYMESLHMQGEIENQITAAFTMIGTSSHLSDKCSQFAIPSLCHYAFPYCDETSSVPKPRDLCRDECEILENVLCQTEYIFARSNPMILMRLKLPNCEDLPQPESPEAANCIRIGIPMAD

One data set concerns the target T1, human ROR1-Fz (Homo sapiens, UniProt Q01973).
T1 construct: Frizzled (Fz, residues 165-305); HIS6 (C); purchased Acro Biosystems; host or cells: HEK293
Description: Biacore off-rate and kinetic analysis, ROR1 frizzled domain. The format is binding. As to conditions: Sample ROR1 Fz; SPR. As to the method:
Anti-Fc polyclonal antibodies were immobilized onto a CM5 chip (GE Life Sciences) using amine coupling chemistry (from Amine Coupling Kit, GE Life Sciences). The immobilization steps were carried out at a flow rate of 25 μL/min in 1×HBS-EP+ buffer (GE Life Sciences; 10× Stock diluted before use). The sensor surfaces were activated for 7 min with a mixture of NHS (0.05 M) and EDC (0.2 M). The Anti-Fc antibodies were injected over all 4 flow cells at a concentration of 25 ug/ml in 10 mM sodium acetate, pH 4.5, for 7 min. Ethanolamine (1 M, pH 8.5) was injected for 7 min to block any remaining activated groups. An average of 12,000 response units (RU) of capture antibody was immobilized on each flow cell.
Off-rate and kinetic binding experiments were performed at 25° C. using 1×HBS-EP+ buffer. Test and control antibodies were injected over the anti-Fc surface at concentrations of 5-10 μg/mL for 12 seconds at a flow rate of 10 μL/min on flow cells 2, 3 and 4, followed by a buffer wash for 30 seconds at the same flow rate. Kinetic characterization of antibody samples was carried out with a range of antigen concentrations from 1-100 nM and 1 injection of 0 nM antigen (for example, 100, 50, 25, 6.25, 1.56 and 0 nM). After capturing ligand (antibody) on the anti-Fc surface, the analyte (hROR1, Fz or Kr domains, Acro Biosystems, Delaware) was bound for 180 seconds, followed by a 600 second dissociation phase at a flow rate of 50 μL/min. Between each ligand capture and analyte binding cycle, regeneration was carried out using 2 injections of 10 mM Glycine pH 2.0 for 30 seconds at 30 μL/min, followed by a 30 second buffer wash step.
The data was fit with the Biacore T200 Evaluation software, using a 1-1 Langmuir binding model. KD (affinity, nM) was determined as a ratio of the kinetic rate constants calculated from the fits of the association and dissociation phases.
For anti-CD3-LC-containing IgGs that had detectable ROR1-binding in ELISA (1944-A07 and 1987-C05 variants), those antibodies were further tested for binding by surface plasmon resonance (SPR). Binding kinetics were assessed to the ROR1-frizzled domain (hROR1-Fz) or the ROR1-extracellular domain (hROR1) for 1944-A07 and 1987-C05 variants, respectively. Briefly, anti-ROR1 antibodies were captured via anti-human Fc polyclonal antibodies immobilized to a CM5 chip, and ROR1 recombinant proteins were flowed across the surface to assess binding kinetics. hROR1 or hROR1-Fz domain (Acro Biosystems, Delaware) binding was tested at 100, 50, 25, 6.25, 1.5625 nM. The data was fit with the Biacore™ T200 Evaluation software, using a 1-1 Langmuir binding model. KD (affinity, nM) was determined as a ratio of the kinetic rate constants calculated from the fits of the association and dissociation phases.
A general note: Surface plasmon resonance follows binding to a sensor surface in real time, without labels.
Molecule B1 registered a kd1 of 0.119 s⁻¹.

With B2, the kd1 worked out at 0.00228 s⁻¹.

Staying with this data set, now noted: Sample ROR1 Fz; SPR, 1-1 Langmuir.
Molecule B1 displayed a ka1 of 1.85e+06 M⁻¹ s⁻¹.

B2: the ka1 turned out to be 360000 M⁻¹ s⁻¹.

The data set is the same for the next values; noted with them: Table 11 (SP34 light chain).
Consider B3, for which the “Biacore human ROR1-Fz ka” value turned out to be 131000 M⁻¹ s⁻¹ and the “Biacore human ROR1-Fz kd” value was found to be 0.000401 s⁻¹.

As to B4, the “Biacore human ROR1-Fz ka” value was found to be 169000 M⁻¹ s⁻¹ and the “Biacore human ROR1-Fz kd” value was found to be 0.000275 s⁻¹.

Turning to B5, the “Biacore human ROR1-Fz ka” value came out at 191000 M⁻¹ s⁻¹ and the “Biacore human ROR1-Fz kd” value came to 0.000792 s⁻¹.

Take B6: the “Biacore human ROR1-Fz ka” value is 139000 M⁻¹ s⁻¹ and the “Biacore human ROR1-Fz kd” value was 0.000343 s⁻¹.

Regarding B7, the “Biacore human ROR1-Fz ka” value came out at 124000 M⁻¹ s⁻¹ and the “Biacore human ROR1-Fz kd” value came out at 0.000945 s⁻¹.

Regarding B8, the “Biacore human ROR1-Fz ka” value was 186000 M⁻¹ s⁻¹ and the “Biacore human ROR1-Fz kd” value is 0.00064 s⁻¹.

B9: the “Biacore human ROR1-Fz ka” value came out at 175000 M⁻¹ s⁻¹ and the “Biacore human ROR1-Fz kd” value was 0.000682 s⁻¹.

Turning to B10, the “Biacore human ROR1-Fz ka” value came to 597000 M⁻¹ s⁻¹ and the “Biacore human ROR1-Fz kd” value worked out at 0.0085 s⁻¹.

As for B11, the “Biacore human ROR1-Fz ka” value was determined as 180000 M⁻¹ s⁻¹ and the “Biacore human ROR1-Fz kd” value stood at 0.00069 s⁻¹.

In the case of B12, the “Biacore human ROR1-Fz ka” value was 183000 M⁻¹ s⁻¹ and the “Biacore human ROR1-Fz kd” value came out at 0.00078 s⁻¹.

B13: the “Biacore human ROR1-Fz ka” value was determined as 150000 M⁻¹ s⁻¹ and the “Biacore human ROR1-Fz kd” value was found to be 0.000568 s⁻¹.

On to B14, for which the “Biacore human ROR1-Fz ka” value was determined as 163000 M⁻¹ s⁻¹ and the “Biacore human ROR1-Fz kd” value was 0.000227 s⁻¹.

With B15, the “Biacore human ROR1-Fz ka” value amounted to 172000 M⁻¹ s⁻¹ and the “Biacore human ROR1-Fz kd” value was determined as 0.000479 s⁻¹.

Test system in the next data set: not listed separately
As to the kind of experiment: Differential scanning fluorimetry (protein thermal shift; TM1 Fc, TM2 Fab). The format is physicochemical. As to conditions: melting temperature of the Fab domain; Table 11. As to the method:
A protein thermal shift assay was carried out by mixing the protein to be assayed with an environmentally sensitive dye (SYPRO Orange, Life Technologies Cat #S-6650) in a phosphate buffered solution (PBS), and monitoring the fluorescence of the mixture in real time as it underwent controlled thermal denaturation. Protein solutions between 0.2-2 mg/mL were mixed at a 1-1 volumetric ratio with a 1-500 PBS-diluted solution of SYPRO Orange (SYPRO Orange stock dye is 5000× in DMSO). 10 μL aliquots of the protein-dye mixture were dispensed in quadruplicate in a 384-well microplate (Bio-Rad Cat #MSP-3852), and the plate was sealed with an optically clear sealing film (Bio-Rad Cat #MSB-1001) and placed in a 384-well plate real-time thermocycler (Bio-Rad CFX384 Real Time System). The protein-dye mixture was heated from 25° C. to 95° C., at increments of 0.1° C. per cycle (˜1.5° C. per minute), allowing 3 seconds of equilibration at each temperature before taking a fluorescence measurement. At the end of the experiment, the transition melting temperatures (TM1 and TM2) were determined using the Bio-Rad CFX manager software. TM1 represents the melting temperature of the Fc domain. TM2 represents the melting temperature of the Fab domain.
For the thermal stability of an antibody, the first melting peak (Tm1) coincides with the unfolding of the CH2 domain (FC stability), while the second melting peak (Tm2) occurs upon unfolding of the Fab domain.
For orientation: DSF heats the sample and reads unfolding from a dye or from intrinsic fluorescence.
On to B3, for which the TM2 was determined as 75 °C.

B4: the TM2 came to 70 °C.

For the molecule B5, the TM2 was found to be 73 °C.

For the molecule B7, the TM2 came to 71 °C.

For B16, the TM2 turned out to be 71 °C.

As to B17, the TM2 is 74 °C.

Consider B8, for which the TM2 came out at 74 °C.

Take B9: the TM2 came to 71 °C.

For B11, the TM2 is 70 °C.

B18: the TM2 was 73 °C.

With B12, the TM2 stood at 69 °C.

As for B13, the TM2 is 75 °C.

Regarding B14, the TM2 was determined as 69 °C.

On to B15, for which the TM2 is 68 °C.
